Assay results: patent US20260176378A1 (DYAX, published 2026)

Biological target: T1, human plasma kallikrein (human, UniProt P03952 20-390; P03952 391-638)
T1 construct: two disulfide-linked chains; NP_000883.2; also called pKal; hpKal
Test: ELISA, biotinylated pKal signal over streptavidin background

T1 sequence (P03952 20-390 limits assumed, chain 1 of 2): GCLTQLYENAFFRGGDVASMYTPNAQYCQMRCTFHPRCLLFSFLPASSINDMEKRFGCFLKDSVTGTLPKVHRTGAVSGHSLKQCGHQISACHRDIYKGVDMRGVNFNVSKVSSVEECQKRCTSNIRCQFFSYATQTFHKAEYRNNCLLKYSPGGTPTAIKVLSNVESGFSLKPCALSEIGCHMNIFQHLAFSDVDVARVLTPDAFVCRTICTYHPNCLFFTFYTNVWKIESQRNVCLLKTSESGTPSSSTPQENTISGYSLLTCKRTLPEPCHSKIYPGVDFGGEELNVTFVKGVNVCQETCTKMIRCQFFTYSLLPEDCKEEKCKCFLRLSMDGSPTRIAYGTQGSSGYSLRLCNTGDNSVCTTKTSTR
T1 sequence (P03952 391-638 limits assumed, chain 2 of 2): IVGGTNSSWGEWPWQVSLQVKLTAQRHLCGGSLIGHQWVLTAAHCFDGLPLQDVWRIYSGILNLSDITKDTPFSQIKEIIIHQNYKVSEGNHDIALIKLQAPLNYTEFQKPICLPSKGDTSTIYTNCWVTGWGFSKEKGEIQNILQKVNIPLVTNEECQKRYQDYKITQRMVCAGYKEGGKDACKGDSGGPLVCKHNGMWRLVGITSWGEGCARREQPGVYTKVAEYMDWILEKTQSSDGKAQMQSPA

| Binder | ELISA (T/B) |
| --- | --- |
| M8-E06 (Fab, V domains shown) VH: EVQLLESGGGLVQPGGSLRLSCAASGFTFSHYFMTWVRQAPGKGLEWVSSIVPSGGMTQYADSVKGRFTISRDNSKNTLYLQMNSLRAEDTAVYYCARDSYSSSWFDIWGQGTMVTVSS VL: not shown | 8.8 |
| M6-A08 (Fab, V domains shown) VH: EVQLLESGGGLVQPGGSLRLSCAASGFTFSPYPMQWVRQAPGKGLEWVSSISSSGGMTEYADSVKGRFTISRDNSKNTLYLQMNSLRAEDTAVYYCARDDYGGKGGAFDIWGQGTMVTVSS VL: DIQMTQSPSSLSASVGDRVTITCRASQRISFYLNWFQQKPGKAPNLLIYGASSLQSGVPSRFSGSGSGTDFTLTISSLQPKDFGTYYCQQTFSTPNTFGQGTKLEIK | 23.4 |
| M8-H04 (Fab, V domains shown) VH: EVQLLESGGGLVQPGGSLRLSCAASGFTFSGYWMGWVRQAPGKGLEWVSSISSSGGWTQYADSVKGRFTISRDNSKNTLYLQMNSLRAEDTATYYCARDDEIAAGGAFDIWGQGAMVTVSS VL: DIQMTQSPSSLSASIGDRVTITCRASQYISTYLNWYEQKPGKAPKLLIYGTSSLQSGVPSRFSGSGSGTEFSLTISSLQPEDFATYYCQQSFTTPFTFGQGTKLEIK | 3.3 |
| M8-G09 (Fab, V domains shown) VH: EVQLLESGGGLVQPGGSLRLSCAASGFTFSLYEMLWVRQAPGKGLEWVSVIYPSGGYTDYADSVKGRFTISRDNSKNTLYLQMNSLRAEDMAVYYCARSFSGFGEIDYWGQGTLVTVSS VL: DIQMTQSPSSLSASVGDTVTITCRASQGVSYYLAWFQQKPGKAPKSLIYGASSLQSGVPSKFSGSGSGTVFTLTISSLQPDDFATYYCQQYNTYPPTFGQGTRLDIK | 28.2 |
| M6-D08 (Fab, V domains shown) VH: EVQLLESGGGLVQPGGSLRLSCAASGFTFSRYHMVWVRQAPGKGLEWVSSISPSGGWTNYADSVKGRFTISRDNSKNTLYLQMNSLRAEDTAMYYCAREMATIAGQFDPWGQGTLVTVSS VL: DIQMTQSPSSLSASVGDRVTITCRASQSISSYLNWYQQKPGKAPKLLIYGASSLQSGVPSRFSGSGSGTDFTLTISSLQPEDSATYYCQQSYTRWTFGQGTKVEIK | 16 |
| M8-C04 (Fab, V domains shown) VH: EVQLLESGGGLVQPGGSLRLSCAASGFTFSYYPMQWVRQAPGKGLEWVSYIYPSGGLTSYADSVKGRFTISRDNSKNTLYLQMNSLRAEDTAVYYCARLFYGSGSVGFEYWGQGTLVTVSS VL: QSALTQPPSVSVSPGQTASITCSGDKLGDKYTSWHQQKPGQSPVLVIYQDSKRPSGIPERFSGSNSGNTATLTISGTQAMDEADYYCQAWDSSTVFGGGTRLTVL | 44.7 |
| M6-A06 (Fab, V domains shown) VH: EVQLLESGGGLVQPGGSLRLSCAASGFTFSLYQMTWVRQAPGKGLEWVSGIWPSGGFTDYADSVKGRFTISRDNSKNTLYLQMNSLRAEDTAVYYCARVSTAVADNDYWGQGTLVTVSS VL: DIQMTQSPSSLSASVGDSVTISCRASQSISMYLNWYQHKPGKAPKLLIYGTSSLQSGVPSRFSGSGPGGTDFTLTISSLQPEDFATYYCQQSYSAPWTFGQGTKVEIK | 11.7 |
| M6-D03 (Fab, V domains shown) VH: EVQLLESGGGLVQPGGSLRLSCAASGFTFSKYFMGWVRQAPGKGLEWVSVIGSSGGWTSYADSVKGRFTISRDNSKNTLYLQMNSLRAEDTAVYYCARVSTAVADNDYWGQGTLVTVSS VL: not shown | 15.5 |
| M6-G05 (Fab, V domains shown) VH: EVQLLESGGGLVQPGGSLRLSCAASGFTFSRYRMVWVRQAPGKGLEWVSSIYPSGGMTAYADSVKGRFTISRDNSKNTLYLQMNSLRAEDTAVYYCARDAVGIGDAFDIWGQGTMVTVSS VL: DIQMTQSPSSLSASVGDRVTITCRASQSISTYLNWYQLKPGKAPKLLIYNAFSMERGVPSTISGSGSGTDFTLTISSLQPEDFATYYCQQSYTTPTTFGQGTKVEIK | 18.5 |
| M8-D05 (Fab, V domains shown) VH: EVQLLESGGGLVQPGGSLRLSCAASGFTFSLYNMNWVRQAPGKGLEWVSSISPSGGFTDYADSVKGRFTISRDNSKNTLYLQMNSLRAEDTAVYYCARDLDLGILDYWGQGTLVTVSS VL: DIQMTQSPSFVSASVGDRVTITCRASQDISSWLVWYQQKPGKGPKLLIYDASNLQSGVPSRFSGGGSGTHFTLTISSLQPEDFATYYCQQADGFPLTFGGGTKVEMK | 11.9 |

Now from value to binder:

| ELISA (T/B) | Binder |
| --- | --- |
| 10.3 | M76-G02 (Fab, V domains shown) VH: EVQLLESGGGLVQPGGSLRLSCAASGFTFSLYAMWWVRQAPGKGLEWVSYISSSGGFTSYADSVKGRFTISRDNSKNTLYLQMNSLRAEDTAVYYCARYRVGVAATDYWGQGTLVTVSS VL: not shown |
| 16.1 | M77-C07 (Fab, V domains shown) VH: EVQLLESGGGLVQPGGSLRLSCAASGFTFSLYIMGWVRQAPGKGLEWVSGIYPSGGFTMYADSVKGRFTISRDNSKNTLYLQMNSLRAEDTAVYYCARESSGVAAPDYWGQGTLVTVSS VL: DIQMTQSPSTLSASVGDRVTITCRASQNISSYLNWYQQKPGKAPKLLIYAASSLQSGVPSRFSGSGSGTDFTLTISSLQPEDFATYSCQQSYSTPRTFGQGTKVEIK |
| 11.8 | M76-G06 (Fab, V domains shown) VH: EVQLLESGGGLVQPGGSLRLSCAASGFTFSGYIMHWVRQAPGKGLEWVSWIYPSGGWTEYADSVKGRFTISRDNSKNTLYLQMNSLRAEDTAVYYCARDAPGVGAIDYWGQGTLVTVSS VL: DIQMTQSPSSLSASVRDRVTITCRASQSISTYLNWYQQKPGEAPKLLVFAASSLQSGVPSRFSGSGSGTDFTLSISSLQPEDFATYYCQQSYSTPHTFGQGAKVEIK |
| 40.4 | M29-G08 (Fab, V domains shown) VH: EVQLLESGGGLVQPGGSLRLSCAASGFTFSYYHMWWVRQAPGKGLEWVSGISPSGGFTFYADSVKGRFTISRDNSKNTLYLQMNSLRAEDTAVYYCARDYYYDSSGYSPLGYWGQGTLVTVSS VL: DIQMTQSPATLSASPGETVTLSCRASQNIGNDVAWYRQRPGQAPRLLIHHASTRAYGIPARLRGSGSATEFTLTITSLEPEDFAIYYCQQFYDWPAHTFALGTRLEIKR |
| 8.6 | M74-A07 (Fab, V domains shown) VH: EVQLLESGGGLVQPGGSLRLSCAASGFTFSQYLMMWVRQAPGKGLEWVSSIYPSGGYTSYADSVKGRFTISRDNSKNTLYLQMNSLRAEDTAVYYCARVSTAVADNDYWGQGTLVTVSS VL: DIQMTQSPSSLSASVRDRVTITCRTSQNINTYLNWYYQAPGRAPKLLIFGVSSLHRGVSSRFSGSGDGTEFTLTISSLQPEDIGTYFCQQSYSSPWTFGQGTKVEIK |
| 6.4 | M76-F02 (Fab, V domains shown) VH: EVQLLESGGGLVQPGGSLRLSCAASGFTFSLYDMNWVRQAPGKGLEWVSGISPSGGQTMYADSVKGRFTISRDNSKNTLYLQMNSLRAEDTAVYYCARQPMISAFDIWGQGTMVTVSS VL: DIQMTQSPSSLSASVGDRVTITCRASQTIDNYLHWYQQKPGKAPKVLIHDASSLQSGVPPRFSGSGSGTDFTLTISSLQPEDFATYYCQQSYDTPQYTFGQGTKLEIK |
| 14.4 | M9-A03 (Fab, V domains shown) VH: not shown VL: DIQMTQSPSSLSASLGDRVTITCRASQNIDIYLNWYQQTPGKAPKLLIYGAYNLQSGVPSRFSGSGSGTDFTLTISSLQPEDFGTYYCQQSYGTPVFGQGTKLEIK |
| 23.6 | M29-D10 (Fab, V domains shown) VH: EVQLLESGGGLVQPGGSLRLSCAASGFTFSWYPMYWVRQAPGKGLEWVSSIGSSGGPTPYADSVKGRFTISRDNSKNTLYLQMNSLRAEDTAVYYCARWADYGGSLDYWGQGTLVTVSS VL: DIQMTQSPSSLSASVGDTVSITCRASQSITIYLNWYQHKPGKAPNLLIYGASNLHSGVPSRFSGSGSGTDFTLTISSLQPEDFATYYCQQSYDTPLTFGGGTKVEIK |
| 16.4 | M29-G10 (Fab, V domains shown) VH: EVQLLESGGGLVQPGGSLRLSCAASGFTFSFYKMIWVRQAPGKGLEWVSSISSSGGSTQYADSVKGRFTISRDNSKNTLYLQMNSLRAEDTAVYYCARDRVDLGYLDYWGQGTLVTVSS VL: DIQMTQSPSSLSSSVGDSATITCRASQSISIYLNWYQQKPGKAPKILIYGASQLESGVPSRFSGSGSGTDFTLTVSGLQPEDFATYWCQQSYNVPYTFGQGTKLEIK |
| 5.2 | M29-C07 (Fab, V domains shown) VH: EVQLLESGGGLVQPGGSLRLSCAASGFTFSGYDMMWVRQAPGKGLEWVSVISSSGGNTAYADSVKGRFTISRDNSKNTLYLQMNSLRAEDTAVYYCARESSGLYYFDYWGQGTLVTVSS VL: not shown |
| 13.4 | M76-H02 (Fab, V domains shown) VH: EVQLLESGGGLVQPGGSLRLSCAASGFTFSMYWMQWVRQAPGKGLEWVSYIYPSGGPTKYADSVKGRFTISRDNSKNTLYLQMNSLRAEDTAVYYCARPSGSYGDAFDIWGQGTMVTVSS VL: DIQMTQSPSSLSASEGDRVTITCRASQDISVYLNWYQMKSGKAPKLLIYGGASLQSGVPARFSGSGYGTDFTLTITDLRPEDFATYYCQQSYSLPFTFGGGTKVEIK |
| 2 | M29-E02 (Fab, V domains shown) VH: EVQLLESGGGLVQPGGSLRLSCAASGFTFSRYPMMWVRQAPGKGLEWVSVIYPSGGDTFYADSVKGRFTISRDNSKNTLYLQMNSLRAEDTAVYYCASGDDYLWEAAVYWGQGTLVTVSS VL: QSVLTQPPSVSEAPRQRVTISCSGSSSNIGNNAVSWYQQLPGKAPKLLIYYDDLLPSGVSDRFSGSKSGTSASLAISGLRSEDEADYYCAAWDDSLNGFVFGTGTKVTVL |
| 33 | M28-F07 (Fab, V domains shown) VH: EVQLLESGGGLVQPGGSLRLSCAASGFTFSDYTMYWVRQAPGKGLEWVSSIVPSGGHTLYADSVKGRFTISRDNSKNTLYLQMNSLRAEDTAVYYCAKDHLSSWYGGFFDYWGQGTLVTVSS VL: DIQMTQSPSSVSASVGDRVTITCRASQGISSWLAWYQQKPGKAPKLLIYATSGLQSGVPSRFSGSGSGTDFTLTISSLQPEDFATYYCQQAKSFPLTFGGGTRVEIK |
| 7.6 | M77-H04 (Fab, V domains shown) VH: EVQLLESGGGLVQPGGSLRLSCAASGFTFSYYTMIWVRQAPGKGLEWVSGIRSSGGGTRYADSVKGRFTISRDNSKNTLYLQMNSLRAEDTAVYYCAKDGSRYSYGSIYYYYGMDAWGQGTTVTVSS VL: not shown |
